Test results: patent US20110046068A1 (MEDICAL RESEARCH COUNCIL, published 2011)
Non-standard residues stand in square brackets, D forms with d.

Molecular target: human gpr-54 receptor (human, UniProt Q969F8 1-398)
Test: cell-based or functional assay

human gpr-54 receptor, sequence (Q969F8 whole entry): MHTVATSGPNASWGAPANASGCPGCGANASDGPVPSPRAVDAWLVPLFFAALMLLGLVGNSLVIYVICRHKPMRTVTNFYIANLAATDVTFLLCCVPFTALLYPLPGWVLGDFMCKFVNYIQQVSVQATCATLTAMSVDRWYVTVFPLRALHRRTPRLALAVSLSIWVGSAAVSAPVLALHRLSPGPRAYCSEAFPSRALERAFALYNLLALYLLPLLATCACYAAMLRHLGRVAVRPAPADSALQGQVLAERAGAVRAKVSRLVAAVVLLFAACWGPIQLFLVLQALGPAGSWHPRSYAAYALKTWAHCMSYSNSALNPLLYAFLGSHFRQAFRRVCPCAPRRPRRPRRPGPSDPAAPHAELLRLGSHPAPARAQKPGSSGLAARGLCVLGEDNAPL

Binder	Inhibition of IP stimulation by 10nM Agonist: % Inhibition of Max	Inhibition of IP stimulation by 10nM Agonist: IC50
Ac-[dY][dN]WNGFGWRF-NH2 [240]	39%	–
Ac-[dY][dN]WNSFG[dW]RF-NH2 [241]	24%	–
Ac-[dY][dN]WNGFG[dW]RF-NH2 (also: further groups not given here) [242]	15%	–
Ac-[dW]NWNGFG[dW]RF-NH2 (SMILES CC(=O)N[C@H](Cc1c[nH]c2ccccc12)C(=O)N[C@@H](CC(N)=O)C(=O)N[C@@H](Cc1c[nH]c2ccccc12)C(=O)N[C@@H](CC(N)=O)C(=O)NCC(=O)N[C@@H](Cc1ccccc1)C(=O)NCC(=O)N[C@H](Cc1c[nH]c2ccccc12)C(=O)N[C@@H](CCCNC(=N)N)C(=O)N[C@@H](Cc1ccccc1)C(N)=O) [243]	55%	10 nM
Ac-[dF]NWNGFG[dW]RF-NH2 (SMILES CC(=O)N[C@H](Cc1ccccc1)C(=O)N[C@@H](CC(N)=O)C(=O)N[C@@H](Cc1c[nH]c2ccccc12)C(=O)N[C@@H](CC(N)=O)C(=O)NCC(=O)N[C@@H](Cc1ccccc1)C(=O)NCC(=O)N[C@H](Cc1c[nH]c2ccccc12)C(=O)N[C@@H](CCCNC(=N)N)C(=O)N[C@@H](Cc1ccccc1)C(N)=O) [244]	60%	10 nM
Ac-[dY]NWNG[dW]G[dW]RF-NH2 (SMILES CC(=O)N[C@H](Cc1ccc(O)cc1)C(=O)N[C@@H](CC(N)=O)C(=O)N[C@@H](Cc1c[nH]c2ccccc12)C(=O)N[C@@H](CC(N)=O)C(=O)NCC(=O)N[C@H](Cc1c[nH]c2ccccc12)C(=O)NCC(=O)N[C@H](Cc1c[nH]c2ccccc12)C(=O)N[C@@H](CCCNC(=N)N)C(=O)N[C@@H](Cc1ccccc1)C(N)=O) [245]	66%	10000 nM
Ac-[dA]NWNG[dW]G[dW]RF-NH2 (SMILES CC(=O)N[C@H](C)C(=O)N[C@@H](CC(N)=O)C(=O)N[C@@H](Cc1c[nH]c2ccccc12)C(=O)N[C@@H](CC(N)=O)C(=O)NCC(=O)N[C@H](Cc1c[nH]c2ccccc12)C(=O)NCC(=O)N[C@H](Cc1c[nH]c2ccccc12)C(=O)N[C@@H](CCCNC(=N)N)C(=O)N[C@@H](Cc1ccccc1)C(N)=O) [246]	80%	50 nM
Ac-[dA]NWNSFG[dW]RF-NH2 (SMILES CC(=O)N[C@H](C)C(=O)N[C@@H](CC(N)=O)C(=O)N[C@@H](Cc1c[nH]c2ccccc12)C(=O)N[C@@H](CC(N)=O)C(=O)N[C@@H](CO)C(=O)N[C@@H](Cc1ccccc1)C(=O)NCC(=O)N[C@H](Cc1c[nH]c2ccccc12)C(=O)N[C@@H](CCCNC(=N)N)C(=O)N[C@@H](Cc1ccccc1)C(N)=O) [247]	80%	8 nM
Ac-[dA]NWNGFGWRF-NH2 (SMILES CC(=O)N[C@H](C)C(=O)N[C@@H](CC(N)=O)C(=O)N[C@@H](Cc1c[nH]c2ccccc12)C(=O)N[C@@H](CC(N)=O)C(=O)NCC(=O)N[C@@H](Cc1ccccc1)C(=O)NCC(=O)N[C@@H](Cc1c[nH]c2ccccc12)C(=O)N[C@@H](CCCNC(=N)N)C(=O)N[C@@H](Cc1ccccc1)C(N)=O) [248]	64%	5000 nM
